# Measured values published in patent publication US20230242658A1 (published 2023).
# Positions count from the first letter of the chain named.
# T1: cynomolgus monkey 4-1BB on CHO-K1 cells (cynomolgus monkey)
# T1 chain: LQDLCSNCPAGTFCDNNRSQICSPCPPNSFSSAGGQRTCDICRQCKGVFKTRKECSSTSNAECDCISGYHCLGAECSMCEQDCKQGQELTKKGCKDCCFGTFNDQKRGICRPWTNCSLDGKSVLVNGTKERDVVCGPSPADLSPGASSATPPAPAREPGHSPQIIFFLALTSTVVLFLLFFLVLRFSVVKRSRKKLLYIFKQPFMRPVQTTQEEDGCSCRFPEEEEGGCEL
# B1: PR001830 (antibody, V domains shown)
# VH: EVQLLESGGGLVQPGGSLRLSCTASGFTFSNYAMSWVRQAPEKGLEWVSSISGSGGSTFYADSVKGRFTISRDNSKNTLYLQMNSLRAEDTAVYFCAKEGSSETDDHYYNVDVWGQGTTVTVSS
# B2: PR001833 (antibody, V domains shown)
# VH: B1 VH with T23A, N31S, S101A, S102T, H107Y, Y108H, Y109F, V111T
# B3: PR001836 (antibody, V domains shown)
# VH: EVQLLESGGGLVQPGGSLRLSCAASGFIFSNFAMTWVRQPPEKGLKWVSSINGSGFNTYYTDSVKGRFTISRDNSRNTLYLQMNRLTAEDTAVYFCAKEGSSETDDHYYNVDVWGQGTTVTVSS
# B4: PR001834 (antibody, V domains shown)
# VH: EVQLLESGGGLVQPGGSLRLSCAASGFTFSGYAMTWVRQPPEKGLEWVSSISGSGNNTFYADSVKGRFTISRDNSKNTLYLQMNSLRAEDTAVYYCAKEGTTETDDYHYNMDVWGQGTTVTVSS
# B5: PR001763 (antibody, V domains shown)
# VH: B1 VH with S85R, R87T, F95Y, S102N, E103G, H107Y, Y108H, N110D, V111I
# B6: PR001831 (antibody, V domains shown)
# VH: EVQLVESGGGVIQPGGSLRLSCEASGFTFSSYAMSWVRQAPEKGLEWVSSISGSGDSTYYADSVKGRFTISRDNSKNTLYLQMNSLRAEDTAGYHCAKEGSNGTDDYHYDIDVWGQGTSVTVSS
# B7: PR007146 (bispecific antibody)
# light: DIQMTQSPSTLSASVGDRVTVTCRASQSIYIWLAWYQQKPGKAPNLLIYKASSLETGVPSRFSGSGSGTEFTLTISSLQPDDFATYYCQQYYGSSRTFGQGTKVEIKRTVAAPSVFIFPPSDEQLKSGTASVVCLLNNFYPREAKVQWKVDNALQSGNSQESVTEQDSKDSTYSLSSTLTLSKADYEKHKVYACEVTHQGLSSPVTKSFNRGEC
# heavy: EVQLVESGGGLVQPGGSLRLSCAASGFTFSSYWMSWVRQAPGKGLEWVANIKQEGSEKYYVDSVKGRFTISRDNAKNSLYLQMNSLRAEDTAVYYCARDRAVAGAFDIWGQGTMVTVSSASTKGPSVFPLAPSSKSTSGGTAALGCLVKDYFPEPVTVSWNSGALTSGVHTFPAVLQSSGLYSLSSVVTVPSSSLGTQTYICNVNHKPSNTKVDKKVEPKSCDKTHTCPPCPAPEAAGAPSVFLFPPKPKDTLMISRTPEVTCVVVDVSHEDPEVKFNWYVDGVEVHNAKTKPREEQYNSTYRVVSVLTVLHQDWLNGKEYKCKVSNKALPAPIEKTISKAKGQPREPQVYTLPPSREEMTKNQVSLTCLVKGFYPSDIAVEWESNGQPENNYKTTPPVLDSDGSFFLYSKLTVDKSRWQQGNVFSCSVMHEALHNHYTQKSLSLSPGGGSGGSEVQLVESGGGLVKPGGSLRLSCAASGFTFSDYYMSWVRQAPGKGLEWVSYISSSGSTIDYADSVKGRFTISRDNAKNSLFLEMNSLRAEDTAVYYCAREREEVAGTLDFDNWGQGTLVTVSS
# B8: PR007143 (bispecific antibody)
# light: B7 light
# heavy: B7 heavy with A477V, V491F, S507G, S510T, F534Y, E536Q, E556A, L571P
# B9: PR007141 (bispecific antibody)
# light: B7 light
# heavy: B7 heavy with A477V, V491F, S507G, S510T, F534Y, E536Q, E556P
# B10: PR007145 (bispecific antibody)
# light: B7 light
# heavy: EVQLVESGGGLVQPGGSLRLSCAASGFTFSSYWMSWVRQAPGKGLEWVANIKQEGSEKYYVDSVKGRFTISRDNAKNSLYLQMNSLRAEDTAVYYCARDRAVAGAFDIWGQGTMVTVSSASTKGPSVFPLAPSSKSTSGGTAALGCLVKDYFPEPVTVSWNSGALTSGVHTFPAVLQSSGLYSLSSVVTVPSSSLGTQTYICNVNHKPSNTKVDKKVEPKSCDKTHTCPPCPAPEAAGAPSVFLFPPKPKDTLMISRTPEVTCVVVDVSHEDPEVKFNWYVDGVEVHNAKTKPREEQYNSTYRVVSVLTVLHQDWLNGKEYKCKVSNKALPAPIEKTISKAKGQPREPQVYTLPPSREEMTKNQVSLTCLVKGFYPSDIAVEWESNGQPENNYKTTPPVLDSDGSFFLYSKLTVDKSRWQQGNVFSCSVMHEALHNHYTQKSLSLSPGGGSGGSEVQLVESGGGLVKPGGSLRLSCAASGFTFSDYYMSWIRQAPGKGLEWVSYISRSGSTIYYADSVKGRFTISRDNAKNSLYLQMNSLRAEDTAVYYCARVRPGGSGNYWDWFDPWGQGTLVTVSS
# B11: PR000701 (bispecific antibody)
# chain 1: not shown
# chain 2: EVQLVESGGGLVQPGGSLRLSCAASGFTFSSYWMSWVRQAPGKGLEWVANIKQEGSEKYYVDSVKGRFTISRDNAKNSLYLQMNSLRAEDTAVYYCARDRAVAGAFDIWGQGTMVTVSSASTKGPSVFPLAPSSKSTSGGTAALGCLVKDYFPEPVTVSWNSGALTSGVHTFPAVLQSSGLYSLSSVVTVPSSSLGTQTYICNVNHKPSNTKVDKKVEPKSC
# chain 3: not shown
# B12: PR003551 (bispecific antibody)
# light: B7 light
# heavy: EVQLVESGGGLVQPGGSLRLSCAASGFTFSSYWMSWVRQAPGKGLEWVANIKQEGSEKYYVDSVKGRFTISRDNAKNSLYLQMNSLRAEDTAVYYCARDRAVAGAFDIWGQGTMVTVSSASTKGPSVFPLAPSSKSTSGGTAALGCLVKDYFPEPVTVSWNSGALTSGVHTFPAVLQSSGLYSLSSVVTVPSSSLGTQTYICNVNHKPSNTKVDKKVEPKSCDKTHTCPPCPAPEAAGGPSVFLFPPKPKDTLMISRTPEVTCVVVDVSHEDPEVKFNWYVDGVEVHNAKTKPREEQYNSTYRVVSVLTVLHQDWLNGKEYKCKVSNKALGAPIEKTISKAKGQPREPQVYTLPPSREEMTKNQVSLTCLVKGFYPSDIAVEWESNGQPENNYKTTPPVLDSDGSFFLYSKLTVDKSRWQQGNVFSCSVMHEALHNHYTQKSLSLSPGEPKSSDKTHTPPPPPRTEVQLLESGGGLVQPGGSLRLSCAASGFIFSNFAMTWVRQPPEKGLKWVSSINGSGFNTYYTDSVKGRFTISRDNSRNTLYLQMNRLTAEDTAVYFCAKEGSSETDDHYYNVDVWGQGTTVTVSS
# B13: PR001766 (antibody, V domains shown)
# VH: EVQLLESGGGLVQPGGSLRLSCAASGFTFSSYAMSWGRQAPGKGLEWVSSISGSGGSTYYADSVKGRFTISRDNSKNTLYLQMNSLRAEDTAVYYCAKEKTGTTGDYYYDMDVWGQGTTVTVSS
# B14: PR001767 (antibody, V domains shown)
# VH: EVQLVETGGGLIQPGGSLRLSCAASGFTVSSNYMSWVRQAPGKGLEWVSVIYSDGSTYYADSVKGRFTISRDNSKNTLYLQMNSLRAEDTAVYYCARDRYYGSGNYPTAYYGMDVRGQGTTVTVSS
# B15: PR001764 (antibody, V domains shown)
# VH: B4 VH with G31S, T35S, P40A, S50A, S54G, N56G, N57S, F59Y, N84D, R87K
# Molecular target: T2, human 4-1BB on CHO-K1 cells (human, UniProt Q07011 24-255)
# Assay: FACS
row,EC50,Binder
1,0.209 nM,B1
2,0.21 nM,B2
3,0.28 nM,B3
4,0.449 nM,B4

# Molecular target: T2, human 4-1BB on CHO-K1 cells
# Assay: FACS
# Remark: another data set of the same source
# Target sequence in this assay (Q07011 24-255): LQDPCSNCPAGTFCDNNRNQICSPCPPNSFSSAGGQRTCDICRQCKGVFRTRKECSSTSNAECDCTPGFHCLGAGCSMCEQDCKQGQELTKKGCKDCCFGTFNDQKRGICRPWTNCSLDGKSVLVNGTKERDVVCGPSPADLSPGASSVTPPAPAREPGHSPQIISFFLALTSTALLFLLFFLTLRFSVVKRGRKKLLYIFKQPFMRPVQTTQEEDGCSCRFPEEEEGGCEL
row,EC50,Binder
1,0.616 nM,B5

# Molecular target: T1, cynomolgus monkey 4-1BB on CHO-K1 cells
# Assay: FACS; FIG. 12E
row,EC50,Binder
1,2.58 nM,B6
2,0.899 nM,B1
3,1.02 nM,B2
4,2.41 nM,B3
5,3.46 nM,B4

# Molecular target: T2, human 4-1BB on CHO-K1 cells
# Assay: FACS blocking of 4-1BBL
# Target sequence in this assay (Q07011 24-255): as above
row,IC50,Binder
1,4.05 nM,B6
2,2.32 nM,B1
3,2.31 nM,B2
4,2.12 nM,B3
5,2.93 nM,B4

# Molecular target: T2, human 4-1BB on CHO-K1 cells
# Assay: FACS
# Remark: another data set of the same source
row,EC50,Binder
1,6.95 nM,B7
2,3.4 nM,B8
3,4.62 nM,B9
4,22.4 nM,B10

# Molecular target: T2, human 4-1BB on CHO-K1 cells
# Assay: FACS
# Remark: another data set of the same source
row,EC50,Binder
1,10.2 nM,B11
2,3.15 nM,B12

# Molecular target: T1, cynomolgus monkey 4-1BB on CHO-K1 cells
# Assay: FACS; FIG. 12B
row,EC50,Binder
1,~0.411 nM,B5
2,4.99 nM,B13
3,25 nM,B14
4,5.33 nM,B15

# Molecular target: T2, human 4-1BB on CHO-K1 cells
# Assay: FACS
# Remark: another data set of the same source
row,EC50,Binder
1,0.399 nM,B13
2,5.87 nM,B14
3,0.249 nM,B15

# Molecular target: T2, human 4-1BB on CHO-K1 cells
# Assay: FACS blocking of 4-1BBL
# Remark: another data set of the same source
# Target sequence in this assay (Q07011 24-255): as above
row,IC50,Binder
1,4.99 nM,B5
2,4.34 nM,B13
3,2.79 nM,B15

# Molecular target: T3, human PD-L1 on CHO-K1 cells (human, UniProt Q9NZQ7 19-290)
# Assay: FACS
# T3 sequence (Q9NZQ7 19-290): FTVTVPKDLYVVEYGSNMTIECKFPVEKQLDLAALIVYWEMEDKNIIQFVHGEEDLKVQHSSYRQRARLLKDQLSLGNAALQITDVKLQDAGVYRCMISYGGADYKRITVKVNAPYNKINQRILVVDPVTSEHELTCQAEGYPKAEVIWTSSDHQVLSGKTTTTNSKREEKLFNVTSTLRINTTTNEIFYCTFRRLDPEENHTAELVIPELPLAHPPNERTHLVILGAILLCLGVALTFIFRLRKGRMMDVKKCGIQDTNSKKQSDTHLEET
row,EC50,Binder
1,1.72 nM,B11
2,1.29 nM,B12

# Molecular target: T3, human PD-L1 on CHO-K1 cells
# Assay: FACS; MDA-MB-231 cells
row,EC50,Binder
1,0.327 nM,B7
2,0.315 nM,B8
3,0.331 nM,B9
4,0.286 nM,B10
